The test system of data set [1] is T1, 5FAMcollagenPPT protease substrate.
T1 sequence: AGGPLGPPGPGGK

The target of data set [2] is T2, 5FAMcollagenPPT protease substrate.
T2 chain: AGGPLGPPGPGGK

Read-outs that look alike come from different tables or passages of the source.

For Neutral Protease, in data set [1], the Km, with 4.14 mM calcium (FRET cleavage assay) amounted to 45.1 µM; the Km, without calcium (FRET cleavage assay) came out at 74.1 µM; the Vmax, with 4.14 mM calcium (FRET cleavage assay) worked out at 29.3 RFU/min/µg; the Vmax, without calcium (FRET cleavage assay) is 20 RFU/min/µg.

With chymotrypsin, in data set [1], the “cleavage of substrate (FRET assay, Example 3, 0.3125-10 µg/mL enzyme, 50 µM substrate)” value was “the mammalian proteases trypsin, chymotrypsin, and elastase do not cleave the protease substrate”.

For the molecule collagenase class I, in data set [1], the Km (FRET cleavage assay, Example 3) was 28.2 µM; the Km, with 4.14 mM calcium (FRET cleavage assay) amounted to 32.9 µM; the Km, without calcium (FRET cleavage assay) turned out to be 38.1 µM; the Vmax (FRET cleavage assay, Example 3) came out at 909 RFU/min/µg. In addition, in data set [1], the Vmax, with 4.14 mM calcium (FRET cleavage assay) turned out to be 1010 RFU/min/µg and the Vmax, without calcium (FRET cleavage assay) worked out at 1700 RFU/min/µg.

Take trypsin: the “cleavage of substrate (FRET assay, Example 3, 0.3125-10 µg/mL enzyme, 50 µM substrate)” value in data set [1] is “the mammalian proteases trypsin, chymotrypsin, and elastase do not cleave the protease substrate”.

B1: collagenase class II (protein)
chain: VQNESKRYTVSYLKTLNYYDLVDLLVKTEIENLPDLFQYSSDAKEFYGNKTRMSFIMDEIGRRAPQYTEIDHKGIPTLVEVVRAGFYLGFHNKELNEINKRSFKERVIPSILAIQKNPNFKLGTEVQDKIVSATGLLAGNETAPPEVVNNFTPILQDCIKNIDRYALDDLKSKALFNVLAAPTYDITEYLRATKEKPENTPWYGKIDGFINELKKLALYGKINDNNSWIIDNGIYHIAPLGKLHSNNKIGIETLTEVMKVYPYLSMQHLQSADQIKRHYDSKDAEGNKIPLDKFKKEGKEKYCPKTYTFDDGKVIIKAGARVEEEKVKRLYWASKEVNSQFFRVYGIDKPLEEGNPDDILTMVIYNSPEEYKLNSVLYGYDTNNGGMYIEPEGTFFTYEREAQESTYTLEELFRHEYTHYLQGRYAVPGQWGRTKLYDNDRLTWYEEGGAELFAGSTRTSGILPRKSIVSNIHNTTRNNRYKLSDTVHSKYGASFEFYNYACMFMDYMYNKDMGILNKLNDLAKNNDVDGYDNYIRDLSSNYALNDKYQDHMQERIDNYENLTVPFVADDYLVRHAYKNPNEIYSEISEVAKLKDAKSEVKKSQYFSTFTLRGSYTGGASKGKLEDQKAMNKFIDDSLKKLDTYSWSGYKTLTAYFTNYKVDSSNRVTYDVVFHGYLPNEGDSKNSLPYGKINGTYKGTEKEKIKFSSEGSFDPDGKIVSYEWDFGDGNKSNEENPEHSYDKVGTYTVKLKVTDDKGESSVSTTTAEIKDLSENKLPVIYMHVPKSGALNQKVVFYGKGTYDPDGSIAGYQWDFGDGSDFSSEQNPSHVYTKKGEYTVTLRVMDSSGQMSEKTMKIKITDPVYPIGTEKEPNNSKETASGPIVPGIPVSGTIENTSDQDYFYFDVITPGEVKIDINKLGYGGATWVVYDENNNAVSYATDDGQNLSGKFKADKPGRYYIHLYMFNGSYMPYRINIEGSVGR
As to B1, in data set [2], the Km (FRET cleavage assay, Example 3) amounted to 24.5 µM; the Km, without calcium (FRET cleavage assay) worked out at 24.1 µM; the Vmax (FRET cleavage assay, Example 3) is 5000 RFU/min/µg; the Vmax, without calcium (FRET cleavage assay) is 3240 RFU/min/µg.

B2: thermolysin (protein)
chain: ITGTSTVGVGRGVLGDQKNINTTYSTYYYLQDNTRGNGIFTYDAKYRTTLPGSLWADADNQFFASYDAPAVDAHYYAGVTYDYYKNVHNRLSYDGNNAAIRSSVHYSQGYNNAFWNGSQMVYGDGDGQTFIPLSGGIDVVAHELTHAVTDYTAGLIYQNESGAINEAISDIFGTLVEFYANKNPDWEIGEDVYTPGISGDSLRSMSDPAKYGDPDHYSKRYTGTQDNGGVHINSGIINKAAYLISQGGTHYGVSVVGIGRDKLGKIFYRALTQYLTPTSNFSQLRAAAVQSATDLYGSTSQEVASVKQAFDAVGVK
Turning to B2, in data set [2], the Km (FRET cleavage assay, Example 3) worked out at 34.6 µM; the Km, with 4.14 mM calcium (FRET cleavage assay) came to 24.8 µM; the Km, without calcium (FRET cleavage assay) was found to be 30.4 µM; the Vmax (FRET cleavage assay, Example 3) amounted to 24.6 RFU/min/µg. In data set [2], the Vmax, with 4.14 mM calcium (FRET cleavage assay) turned out to be 25.5 RFU/min/µg and the Vmax, without calcium (FRET cleavage assay) was determined as 23.7 RFU/min/µg.
